Where two headings read alike, the source gives them in different places. Numbered stars: 1 amine (or outer) side, 2 acyl side, 3 side chain; on linkers, the order of the positions; unused ones are H or OH. Bridge positions count the residues as written; N and C are the ends. Square brackets hold non-standard residues; d marks the D form. Ends that are not written are not given here. Peptide text beside a SMILES is read from it. I, II: the chains in the order shown. * marks the point of attachment. X1 = CC(C)CCC[C@@H](C)[C@H]1CC[C@H]2[C@@H]3CC=C4C[C@@H](OCCN(CCNC(=O)CCOCCOCCOCCOCCNC(=O)CCCN5C(=O)CC([*:1])C5=O)CCNC(=O)CCOCCOCCOCCOCCNC(=O)CCCN5C(=O)CC([*:2])C5=O)CC[C@]4(C)[C@H]3CC[C@]12C; Cbz = O=C(OCc1ccccc1)*
Legend:
[1] = biological target: measles virus (MeV) fusion protein F, wild type, expressed on cells (measles virus) (UniProt Q786F3); experiment: cell-based or functional assay
[2] = biological target: measles virus (MeV) fusion protein F, wild type, expressed on cells (measles virus) (UniProt Q786F3); experiment: cell-based or functional assay; remark: listed apart in the source
[3] = tested on: vesicular stomatitis virus (VSV); details: 16 h
[4] = biological target: viral glycoproteins (H and F); CD150; experiment: beta-galactosidase complementation-based fusion assay, CD150 target cells; details: for IC90: read-out: CD150 IC90
[5] = biological target: viral glycoproteins (H and F); Nectin-4 (Measles virus, UniProt Q786F3); experiment: beta-galactosidase complementation-based fusion assay, Nectin-4 target cells

| Compound | IC50, beta-galactosidase complementation-based fusion assay, Nectin-4 target cells [1] | IC90, beta-galactosidase complementation-based fusion assay, Nectin-4 target cells [1] | IC90, beta-galactosidase complementation-based fusion assay, Nectin-4 target cells [2] | also measured |
| --- | --- | --- | --- | --- |
| FIP-peg4-chol (peptide) | 4 µM | 7.62 µM |  |  |
| FIP-HRC450-485 (peptide) | 4.24 µM |  | > 10 µM |  |
| I: Cbz-[dF]FGGSGSGVALDPIDISIVLNKIKSDLEESKEWIRRSNKILDSIGSGSGC / II: Cbz-[dF]FGGSGSGVALDPIDISIVLNKIKSDLEESKEWIRRSNKILDSIGSGSGC (linker I:50-II:50 via X1; N-terminus assumed) [FIP VI KI] |  |  |  | IC50 [3]: > 5 µM |
| FIP-HRC450-485-peg4-chol (peptide) | 0.214 µM | 0.614 µM |  |  |
| HRC450-485 (peptide) | > 10 µM | > 10 µM |  |  |
| FIP-HRC450-485-chol (peptide) | 0.214 µM | 0.614 µM | 0.446 µM | IC50, beta-galactosidase complementation-based fusion assay, Nectin-4 target cells [2]: 0.251 µM |
| CC(C)CCC[C@@H](C)[C@H]1CC[C@H]2[C@@H]3CC=C4C[C@@H](OCCN(CCNC(=O)CCOCCOCCOCCOCCNC(=O)CCCN5C(=O)CC(SC[C@H](NC(=O)CNC(=O)[C@H](CO)NC(=O)CNC(=O)[C@H](CO)NC(=O)CNC(=O)CNC(=O)[C@H](Cc6ccccc6)NC(=O)[C@@H](Cc6ccccc6)NC(=O)OCc6ccccc6)C(=O)O)C5=O)CCNC(=O)CCOCCOCCOCCOCCNC(=O)CCCN5C(=O)CC(SC[C@H](NC(=O)CNC(=O)[C@H](CO)NC(=O)CNC(=O)[C@H](CO)NC(=O)CNC(=O)CNC(=O)[C@H](Cc6ccccc6)NC(=O)[C@@H](Cc6ccccc6)NC(=O)OCc6ccccc6)C(=O)O)C5=O)CC[C@]4(C)[C@H]3CC[C@]12C (some centres unmarked) [[FIP-peg4]2-chol] (I: Cbz-[dF]FGGSGSGC-OH / II: Cbz-[dF]FGGSGSGC-OH; linker I:9-II:9 via X1) |  |  |  | IC50 [4]: 0.51 ± 0.36 µM; IC90 [4]: 0.927 ± 0.359 µM; IC90 [5]: 1.845 ± 0.016 µM; IC50 ([5]; IC50, Table 2 (salient peptides), Nectin-4 target cells): 0.452 ± 0.196 µM; IC90 ([5]; read-out: Nectin4 IC90): 1.845 ± 0.016 µM |
| HRC450-485-peg4-chol (peptide) | 0.123 µM | 0.856 µM |  |  |
| FIP-chol (peptide) | 4 µM | 7.62 µM | > 10 µM | IC50, beta-galactosidase complementation-based fusion assay, Nectin-4 target cells [2]: > 10 µM |
| HRC450-485-chol (peptide) |  | > 7 µM | > 1 µM | IC50, beta-galactosidase complementation-based fusion assay, Nectin-4 target cells [2]: 0.103 µM |
| CC[C@H](C)[C@H](NC(=O)[C@H](CC(C)C)NC(=O)[C@H](CO)NC(=O)[C@H](Cc1c[nH]cn1)NC(=O)[C@@H](NC(=O)[C@H](CC(C)C)NC(=O)[C@H](CO)NC(=O)[C@@H](NC(=O)[C@H](Cc1ccc(O)cc1)NC(=O)[C@H](CC(N)=O)NC(=O)[C@H](CC(N)=O)NC(=O)[C@@H](NC(=O)[C@H](CCC(=O)O)NC(=O)[C@H](CCCNC(=N)N)NC(=O)[C@H](CC(=O)O)NC(=O)[C@H](Cc1c[nH]c2ccccc12)NC(=O)[C@H](CCC(=O)O)NC(=O)[C@H](CCSC)NC(=O)[C@H](Cc1c[nH]c2ccccc12)NC(=O)CNC(=O)[C@H](CO)NC(=O)CNC(=O)[C@H](CO)NC(=O)CNC(=O)CNC(=O)[C@H](Cc1ccccc1)NC(=O)[C@@H](Cc1ccccc1)NC(=O)OCc1ccccc1)[C@@H](C)CC)[C@@H](C)O)[C@@H](C)CC)C(=O)N[C@@H](CCC(=O)O)C(=O)N[C@@H](CCC(=O)O)C(=O)N[C@@H](CO)C(=O)N[C@@H](CCC(N)=O)C(=O)N[C@@H](CC(N)=O)C(=O)N[C@@H](CCC(N)=O)C(=O)N[C@@H](CCC(N)=O)C(=O)N[C@@H](CCC(=O)O)C(=O)N[C@@H](CCCCN)C(=O)N[C@@H](CC(N)=O)C(=O)N[C@@H](CCC(=O)O)C(=O)N[C@@H](CCC(N)=O)C(=O)N[C@@H](CCC(=O)O)C(=O)N[C@@H](CC(C)C)C(=O)N[C@@H](CC(C)C)C(=O)NCC(=O)N[C@@H](CO)C(=O)NCC(=O)N[C@@H](CO)C(=O)NCC(=O)N[C@@H](CSC1CC(=O)N(CCCC(=O)NCCOCCOCCOCCOCCC(=O)NCCN(CCNC(=O)CCOCCOCCOCCOCCNC(=O)CCCN2C(=O)CC(SC[C@H](NC(=O)CNC(=O)[C@H](CO)NC(=O)CNC(=O)[C@H](CO)NC(=O)CNC(=O)[C@H](CC(C)C)NC(=O)[C@H](CC(C)C)NC(=O)[C@H](CCC(=O)O)NC(=O)[C@H](CCC(N)=O)NC(=O)[C@H](CCC(=O)O)NC(=O)[C@H](CC(N)=O)NC(=O)[C@H](CCCCN)NC(=O)[C@H](CCC(=O)O)NC(=O)[C@H](CCC(N)=O)NC(=O)[C@H](CCC(N)=O)NC(=O)[C@H](CC(N)=O)NC(=O)[C@H](CCC(N)=O)NC(=O)[C@H](CO)NC(=O)[C@H](CCC(=O)O)NC(=O)[C@H](CCC(=O)O)NC(=O)[C@@H](NC(=O)[C@H](CC(C)C)NC(=O)[C@H](CO)NC(=O)[C@H](Cc3c[nH]cn3)NC(=O)[C@@H](NC(=O)[C@H](CC(C)C)NC(=O)[C@H](CO)NC(=O)[C@@H](NC(=O)[C@H](Cc3ccc(O)cc3)NC(=O)[C@H](CC(N)=O)NC(=O)[C@H](CC(N)=O)NC(=O)[C@@H](NC(=O)[C@H](CCC(=O)O)NC(=O)[C@H](CCCNC(=N)N)NC(=O)[C@H](CC(=O)O)NC(=O)[C@H](Cc3c[nH]c4ccccc34)NC(=O)[C@H](CCC(=O)O)NC(=O)[C@H](CCSC)NC(=O)[C@H](Cc3c[nH]c4ccccc34)NC(=O)CNC(=O)[C@H](CO)NC(=O)CNC(=O)[C@H](CO)NC(=O)CNC(=O)CNC(=O)[C@H](Cc3ccccc3)NC(=O)[C@@H](Cc3ccccc3)NC(=O)OCc3ccccc3)[C@@H](C)CC)[C@@H](C)O)[C@@H](C)CC)[C@@H](C)CC)C(=O)O)C2=O)CCO[C@H]2CC[C@@]3(C)C(=CC[C@H]4[C@@H]5CC[C@H]([C@H](C)CCCC(C)C)[C@@]5(C)CC[C@@H]43)C2)C1=O)C(=O)O (some centres unmarked) [FIP HIV] |  |  |  | IC50 [3]: > 5 µM |
| CC(C)CCC[C@@H](C)[C@H]1CC[C@H]2[C@@H]3CC=C4C[C@@H](OC(=O)CSC[C@H](NC(=O)CNC(=O)[C@H](Cc5ccccc5)NC(=O)[C@@H](Cc5ccccc5)NC(=O)OCc5ccccc5)C(=O)O)CC[C@]4(C)[C@H]3CC[C@]12C [FIP-chol (no GSGSG)] |  |  |  | IC50 [4]: > 1 µM; IC90 [4]: > 1 µM; IC50 ([5]; Nectin4 IC50, Table 3 (extended version)): > 1 µM; IC90 ([5]; read-out: Nectin4 IC90): > 1 µM |
